± gives the standard deviation.
Assay: protein stability index of a GFP-peptide fusion (GPS, HEK-293T) (PSI 1-6); higher = more stable
[1] = treatment: DMSO, c terminus: a fixed tail appended
[2] = treatment: MLN4924 1 uM, 8 h, c terminus: a fixed tail appended
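Also: 24-mer peptide tiles fused after GFP, lentivirally expressed, FACS-sorted into six equal bins by GFP/DsRed ratio, decoded by Illumina sequencing, PSI is the read-weighted mean bin number.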

## SRFRKAYKPEQPLVRLRGGAYIGE [LOXL2]
[1]
  protein stability index: 3.16 ± 0.26
[2]
  protein stability index: 2.98 ± 0.39

## ENANLQEYVEKETQEKKRLSRTNE [MTUS2]
[1]
  protein stability index: 5.33 ± 0.45
[2]
  protein stability index: 5.35 ± 0.18

## AYALPAGLSAPARCLVRCLLRREP [TRIB3]
[1]
  protein stability index: 2.23 ± 0.49
[2]
  protein stability index: 1.87 ± 0.31

## GPDVLETDGLQEVPLCSCRMETPK [EHMT1]
[1]
  protein stability index: 4.16 ± 0.43
[2]
  protein stability index: 4.29 ± 0.29

## KTGILILILSIIFIEGYCTPEEVI [MAGEA10]
[1]
  protein stability index: 3.53 ± 0.9
[2]
  protein stability index: 2.63 ± 0.36

## AVGYSSDSETLDLEEAEGAVGYQP [NFE2L1]
[1]
  protein stability index: 5.24 ± 0.1
[2]
  protein stability index: 5.33 ± 0.21

## NMSLTALREKLLEAEQSLRNLEDI [TEKT4]
[1]
  protein stability index: 3.29 ± 0.47
[2]
  protein stability index: 3.43 ± 0.46

## DSDSCQKCDQPFFWNFKQMWDSKK [WDFY2]
[1]
  protein stability index: 3.64 ± 0.16
[2]
  protein stability index: 3.71 ± 0.081

## TIEGTSDDLTVVDAASLRRQIIKL [MFF]
[1]
  protein stability index: 4 ± 0.34
[2]
  protein stability index: 4.08 ± 0.16

## PLKLHYQLRNVRERLAKNLVEKGV [GOLPH3]
[1]
  protein stability index: 2.4 ± 0.15
[2]
  protein stability index: 2.7 ± 0.3

## NIIAIAATNNLYIFQDKVNSDMH [PPP2R2C]
treatment: DMSO, c terminus: native
  protein stability index: 2.36 ± 0.49
treatment: MLN4924 1 uM, 8 h, c terminus: native
  protein stability index: 2.09 ± 0.2

## DTPCTNRGLPLLKTDFGSCLLQPP [DLC1]
[1]
  protein stability index: 3.41 ± 0.19
[2]
  protein stability index: 3.34 ± 0.34

## ETSRSHDLEAVVPQNGSETGWARK [ATP23]
[1]
  protein stability index: 4.95 ± 0.2
[2]
  protein stability index: 5.21 ± 0.12

## MDIKNSPSSLNSPSSYNCSQSILP [ESR2]
[1]
  protein stability index: 3.8 ± 0.19
[2]
  protein stability index: 3.93 ± 0.29

## KGTSPSSKYVKLNVGGALYYTTMQ [KCTD10]
[1]
  protein stability index: 2.28 ± 0.091
[2]
  protein stability index: 2.2 ± 0.14

## FAELSVDMEKILEIIRVILKLYEQ [CCNC]
[1]
  protein stability index: 2.2 ± 0.12
[2]
  protein stability index: 2.69 ± 0.25

## IEAAVQDRLNEQEGVPSVFNPPPS [FAF2]
[1]
  protein stability index: 5.06 ± 0.17
[2]
  protein stability index: 5.04 ± 0.15

## ATTNACEKPIGSCVTNPCGPRSRC [KRT33B]
[1]
  protein stability index: 3.92 ± 0.17
[2]
  protein stability index: 4.14 ± 0.23

## HESSGNPPLRVIVKDALFCSCLSD [RHOBTB3]
[1]
  protein stability index: 3.11 ± 0.25
[2]
  protein stability index: 3.24 ± 0.12

## DLISKSFQGSQGRAYLFNSVVNVG [YPEL3]
[1]
  protein stability index: 2.16 ± 0.22
[2]
  protein stability index: 2.11 ± 0.19

## SVIVLDINDNAPTFQSSVLRVGIP [PCDHGC5]
[1]
  protein stability index: 2.18 ± 0.11
[2]
  protein stability index: 2.21 ± 0.081

## KTKVPSNDNSSDLLYDDLYDDDID [UBE2R2]
[1]
  protein stability index: 5.28 ± 0.43
[2]
  protein stability index: 5.38 ± 0.36

## HDAQVRLYKEELEQTYHAKLENAR [LMNB1]
[1]
  protein stability index: 3.99 ± 0.34
[2]
  protein stability index: 4.13 ± 0.14

## DNSLINQIENLNIQVEDIRIRAIL [LOXL2]
[1]
  protein stability index: 2.59 ± 0.25
[2]
  protein stability index: 2.66 ± 0.17

## LFGGEFEDSVFEERPERRSGPPAS [C8orf76]
[1]
  protein stability index: 4.75 ± 0.18
[2]
  protein stability index: 4.69 ± 0.2

## FSLKQEETLDYGKNYNYGMHYCAV [NEUROD6]
[1]
  protein stability index: 2.4 ± 0.18
[2]
  protein stability index: 2.07 ± 0.34

## VWTNDQVVHWVQSIGLRDYAGNLH [PPFIA4]
[1]
  protein stability index: 2.16 ± 0.53
[2]
  protein stability index: 2.11 ± 0.29

## DTYIVLAWISKIKGSPDVSASSDE [SMIM2]
[1]
  protein stability index: 2.42 ± 0.6
[2]
  protein stability index: 2.41 ± 0.27

## IRINPQSWFDNGSICMRMEILGCP [CPXM2]
[1]
  protein stability index: 2.86 ± 0.53
[2]
  protein stability index: 2.68 ± 0.59

## LHFIATNYLIFSQKPEFQDLSVEE [RHOBTB3]
[1]
  protein stability index: 2.5 ± 0.77
[2]
  protein stability index: 2.15 ± 0.38

## EETGSRFHNCLIQLYCEKVQGLMK [VPS39]
[1]
  protein stability index: 2.48 ± 0.45
[2]
  protein stability index: 2.45 ± 0.5

## SELIVHIFSFLPAPDRLRASASCS [FBXO33]
[1]
  protein stability index: 2.76 ± 0.14
[2]
  protein stability index: 1.94 ± 0.35

## KKRTEQEETIASLQMEVCRLKKEE [CEP70]
[1]
  protein stability index: 5.22 ± 0.2
[2]
  protein stability index: 5.19 ± 0.38

## FDDEEPRKFYVHIKPAPARAPACS [FCHO1]
[1]
  protein stability index: 3.27 ± 0.14
[2]
  protein stability index: 3.29 ± 0.38

## SENLEEETENIIAANHWVLPAAEF [TRIP13]
[1]
  protein stability index: 4.8 ± 0.26
[2]
  protein stability index: 4.61 ± 0.17

## NLDKMADNLLAAADKYALERLKVM [SPOPL]
[1]
  protein stability index: 3.1 ± 0.44
[2]
  protein stability index: 3.04 ± 0.42

## QVTAPGAPPLQAETPGSAVDYPLH [TNXB]
[1]
  protein stability index: 4.45 ± 0.087
[2]
  protein stability index: 5.292 ± 0.007

## MKNLLFSEMWDIFLVRLLMAMAVM [MFSD9]
[1]
  protein stability index: 3.14 ± 0.48
[2]
  protein stability index: 3.22 ± 0.77

## AKPRLAERMTTREKKVLEAGMGKV [HDAC6]
[1]
  protein stability index: 4.38 ± 0.17
[2]
  protein stability index: 3.98 ± 0.2

## PESADTGDKSESPDEANVGKHPKD [TOR1AIP2]
[1]
  protein stability index: 5.57 ± 0.14
[2]
  protein stability index: 5.601 ± 0.053

## FSTQYRCFSVSMLAGPNDRSDVEK [UFD1]
[1]
  protein stability index: 2.68 ± 0.39
[2]
  protein stability index: 3.01 ± 0.57

## AKPEVLSIQWPGKRSSRRVQRHNS [NECAB1]
[1]
  protein stability index: 4.23 ± 0.2
[2]
  protein stability index: 4.37 ± 0.21

## LPLPEQIHKASATIIEPAGESDNP [INTS4]
[1]
  protein stability index: 5.5 ± 0.26
[2]
  protein stability index: 5.49 ± 0.19

## LLTRKVICKSDAPTGDVLLDEALK [GOLPH3]
[1]
  protein stability index: 2.51 ± 0.25
[2]
  protein stability index: 2.91 ± 0.39

## YVDIQGLTASTMEILLDFVYTETV [KLHL12]
[1]
  protein stability index: 3.564 ± 0.008
[2]
  protein stability index: 3.1 ± 1.2
